Reference: article PMC6563293
Read-outs that look alike come from different tables or passages of the source.

Test system: MBP::P1 (Wheat streak mosaic virus (isolate Sidney 81))
Assay: EMSA

Substance | K half (5' phosphate) [nmol] | K half [nmol]
24-nt GFP ds-siRNA | 0.03 | 
21-nt GFP ds-siRNA | 0.03 | 
180-nt GFP dsRNA |  | 0.03
